Source: US20230381112A1, “Compositions and Methods of Manufacturing Amphiphilic Block Copolymers that Form Nanoparticles in Situ” (Vaccuitech North America, Inc., priority 2020, published 2023)
“Also recorded” adds a separate entry of the source. No end group written: not given here.

How the values were obtained:
NF-κB = experiment: Innate immune stimulation: NF-κB activation in THP1 NF-κB SEAP reporter monocytes; assay type: cell-based, human; conditions: polymer up to 20 mg/mL in culture medium
[1] = system: human monocyte cells (THP1); conditions: 100 μM
Description: The cellular viability of retinal pigmented epithelial like cells (ARPE19) and monocyte like cells (THP1) were assessed following exposure to thermo-responsive polymer at physiologically relevant concentrations.
THP1 cells were grown in vitro in cell growth medium and exposed to thermo-responsive polymer micelle that was resuspended in cell growth medium at the concentrations specified up to 20 mg/mL. […] Cell viability was assessed using Promega CellTiter 96® Non-Radioactive Cell Proliferation Assay (MTT).

[2] = DLS temperature sweep in PBS: hydrodynamic diameter (DH), transition temperature (Ttr), solubility/aggregation; assay type: physicochemical; conditions: for Ttr: drug conjugate polymers; for Ttr / DH^20° C. / DH^37° C.: PBS at 0.5 mg/mL; for DH^20° C.: hydrodynamic diameter at 20° C.; for DH^37° C.: hydrodynamic diameter at 37° C.
Description: Temperature-responsive: Refers to changes in properties of a material with changes in temperature. A material may be described as temperature-responsive if the properties of the material change with respect to changes in temperature. Temperature-responsive polymers are polymers that experience a change in physical properties in response to temperature, such as a change in solubility with changes temperature, which may be described by a lower critical solution temperature (LCST) or upper critical solution temperature (UCST). Preferred embodiments of the temperature-responsive polymers described herein have reduced solubility at elevated temperatures, which may be described by an LCST or transition temperature (Ttr), if the LCST is unknown. Transitions temperatures described herein are experimentally determined by dynamic light scattering or by turbidity, wherein particle size (or light scattering intensity) or absorbance are plotted against temperature to produce a sigmoidal curve. The transition temperature as used herein is the temperature (value on the x-axis) at which the y-value is 50% the maximum value of the sigmoidal curve. Temperature-responsive monomers are monomers that form temperature-responsive polymers. […] Note: temperature-responsive monomers are defined herein as a type of hydrophobic monomer that is hydrophobic at certain temperatures.
Hydrodynamic behavior, thermo-responsiveness, and solubility under aqueous conditions. Prepared polymers and control materials were characterized for nanoparticle hydrodynamic diameter by dynamic light scattering (DLS), thermo-responsivity and overall solubility in PBS.

[3] = Concentration-dependent hydrodynamic behavior by DLS in PBS (0.8 to 200 mg/mL, 20-37° C.); conditions: result in words; 5 mg/mL vs 200 mg/mL in PBS
Description: Unless otherwise indicated, the hydrodynamic diameter (DH), also referred to as simply the diameter or as the number average diameter or number mean diameter, of the polymers and copolymers were measured using dynamic light scattering (DLS) at a scattering angle θ=90° using a Zetasizer Ultra (Malvern Panalytical, Malvern, England) equipped with a 633 nm laser, capillary cell (ZSU1002) and ZS Xplorer software. […] For measurements presented, number mean diameter was used for assessment. […] For transition temperature (Ttr) characterization, DLS measurements were performed for temperature sweeps over a maximum range of 4-50° C. at a concentration of 0.5 mg/mL, 5 mg/mL or 200 mg/mL in PBS (150 mM NaCl, pH 7.4). At each step, measurements were performed after reaching steady-state temperature conditions. Characterization of the polymer chain conformational changes was evaluated from the temperature dependence of the hydrodynamic diameter (DH); the Ttr value was determined from the intersection point of two lines formed by the linear regression of a lower horizontal asymptote and a vertical section of the S-shaped curve (sigmoidal curve) fit.

[4] = intravitreal injection; cited from earlier work
[5] = polymers of temperature-responsive monomers; cited from earlier work

Compound | Ttr [2] | DH^20° C. [2] | DH^37° C. [2] | other results
CCCCc1nc2c(N)nc3ccccc3c2n1CCCCN [Compound 34, 1-(4-aminobutyl)-2-butyl-1H-imidazo[4,5-c]quinolin-4-amine] | – | – | – | NF-κB activation (NF-κB): strong NF-κB response; viability of THP1 cells [1]: 10-20%
CN-p[(NIPMAM)f1-co-(BnMAM)f2]-b-p(HPMA)a-PEG4-Ova [Compound 291] | 28 °C | 7.4 nm | 40.4 nm | thermo-responsive and micelle-forming behavior ([2]; result in words, DLS in PBS): retains temperature responsiveness; concentration-responsive micellization [3]: retain concentration responsive micellization properties; also recorded: similarly demonstrated
CN-p[(NIPMAM)f1-co-(BnMAM)f2]-b-p(HPMA)a-PEG4-Ova [Compound 293] | 29 °C | 5.7 nm | 41.1 nm | –
Ranibizumab: Fab molecule used for intravitreal injections | – | – | – | vitreal half-life [4]: 76.8 h
P(Val-Pro-Gly-Val-Gly)(SEQ ID NO: 3) (VPGVG; also: polymer of peptide-derived monomer) | – | – | – | LCST or Ttr [5]: 27 °C
CN-p[(NIPMAM)f1-co-(BnMAM)f2]-b-p(HPMA)a-pip-diABZI [Compound 290] | 31 °C | 15.3 nm | 25.3 nm | –
CN-p[(NIPMAM)f1-co-(BnMAM)f2]-b-p(HPMA)a-PEG4-Ova [Compound 292] | 32 °C | 6.1 nm | 36.5 nm | –
Val-Pro-Gly-Val-Gly (SEQ ID NO: 3) derived polymethacrylate: polymethacrylate derived from the pentapeptide, Class IV of Table 1 (VPGVG; also: polymethacrylate backbone with pendant peptide) | – | – | – | LCST or Ttr [5]: 15-55 °C
